From PMC5377317, “Generation of Aptamers from A Primer-Free Randomized ssDNA Library Using Magnetic-Assisted Rapid Aptamer Selection”

Biological target: T1, C-reactive protein (CRP) (human, UniProt P02741 19-224)
T1 sequence: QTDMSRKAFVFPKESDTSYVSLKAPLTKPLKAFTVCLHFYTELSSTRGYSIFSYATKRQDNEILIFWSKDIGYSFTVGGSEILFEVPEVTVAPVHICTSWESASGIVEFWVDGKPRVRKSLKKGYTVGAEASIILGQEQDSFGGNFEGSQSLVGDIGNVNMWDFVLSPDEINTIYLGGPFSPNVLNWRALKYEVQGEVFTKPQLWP
Test: magnetic bead pull-down with q-PCR, saturation fit; apparent Kd; 2 mM MgCl2; CRP-MNPs; BD buffer: 50 mM NaH2PO4 pH 8.0, 150 mM NaCl, 5 mM KCl, 2 mM MgCl2, 0.05% Tween-20; room temperature, 30 min; aptamer 1.5625-200 nM
Conditions: protein: commercial; tags: biotinylated (EZ-Link Sulfo-NHS-Biotin), on streptavidin magnetic nanoparticles; chain copies: 5; single strand, small loop predicted by Mfold (dG -2.93 kcal/mol)

B1: PF20N-RO-MARAS-84-1 (ssDNA)
DNA: GTTGACGGGCGATTGGTCTT
  Kd: 23.6 ± 0.82 nM
